The target of the data set is GST-OGG1F319A (Homo sapiens, UniProt O15527 1-345, F319A). Description: EMSA.
Chain of GST-OGG1F319A (O15527 whole entry F319A): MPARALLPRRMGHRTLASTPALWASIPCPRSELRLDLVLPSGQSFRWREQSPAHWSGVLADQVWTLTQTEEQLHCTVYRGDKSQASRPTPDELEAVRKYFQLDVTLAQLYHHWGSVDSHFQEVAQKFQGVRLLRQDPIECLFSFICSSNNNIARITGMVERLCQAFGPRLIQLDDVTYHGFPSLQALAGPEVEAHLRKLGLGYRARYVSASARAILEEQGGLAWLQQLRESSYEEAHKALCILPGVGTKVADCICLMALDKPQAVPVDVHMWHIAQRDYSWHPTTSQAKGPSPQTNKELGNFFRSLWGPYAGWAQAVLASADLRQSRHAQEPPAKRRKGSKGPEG

B1: 8-oxoGua duplex probe (Table S1) (dsDNA)
DNA 1: AGAGAAGAAGAAGAAGAAGAGATGGGTTATTCGAACTAGC
DNA 2: GCTAGTTCGAATAACCCATCTCTTCTTCTTCTTCTTCTCT
modifications: 8-oxoguanine at position 19 of strand 1 (printed X, written as G)
With B1, the binding result is listed as “no binding”.

Values taken from paper PMC12088383.
